We go through 1 molecule from patent publication US20200010534A1 (SAGABIO, published 2020).

Test [1] has as its target T1, HpHSP60 fragment including positions 101-200 (Helicobacter pylori, UniProt B2UW12 101-200).
T1 construct: also called HSP 60 101-200
T1 sequence: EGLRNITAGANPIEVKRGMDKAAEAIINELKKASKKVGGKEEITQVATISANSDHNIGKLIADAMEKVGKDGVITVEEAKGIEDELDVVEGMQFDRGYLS
Kind of test: recognition of HpHSP60 fragments by the antibody (spot/blot, FIG. 15).

For test [2], the target named is T2, HpHSP60 fragment Δ[5], positions 101-168 of HpHSP60 (Helicobacter pylori, UniProt B2UW12 101-168).
T2 sequence: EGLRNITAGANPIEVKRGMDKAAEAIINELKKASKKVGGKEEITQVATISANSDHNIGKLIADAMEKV
As to the kind of experiment: recognition of HpHSP60 fragments by the antibody (spot/blot, FIG. 16).

Test [3] deals with T3, HpHSP60 fragment Δ[1], positions 134-200 of HpHSP60 (Helicobacter pylori, UniProt B2UW12 134-200).
T3 sequence: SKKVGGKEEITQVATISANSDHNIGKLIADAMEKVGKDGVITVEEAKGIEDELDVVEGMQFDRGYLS
The test is described as above.

B1: LHP-1 (9E4) antibody (antibody, V domains shown)
VH: EVHLVESGGDLVKPGGSLKLSCAASGFTFSSFGMSWVRQTPDKRLEWVATISNGGSYTYYPDSVKGRFTISRDNAKNTLYLQMSSLKSEDTAMYYCTRQGLRRRGAMDYWGQGTSVTVSS
VL: DIVLTQSPASLAVSLGQRATISCKASQSVDYDGDVFLNWYQQKPGQPPKLLIYAASNLESGIPARFSGSGSGTDFTLNIHPVEEDDAATYYCQQSNEVPWTFGGGTKLEIK
notes: Mouse monoclonal antibody from hybridoma 9E4 (ATCC PTA-122900); The variable regions are tied to the deposited hybridoma only in the claims; also called LHP-1 (9E4) mAb; monoclonal antibody produced by hybridoma ATCC PTA-122900
Take B1: the binding result in test [1] is on record as “binds”; in test [2] it was “no binding”; in test [3] it was “binds”.
